Measured values reported in article PMC12775068.

Target: MUC2C-N (human MUC2 residues 4256-4803, C4786A; PTS3, VWCN, D4 and VWC1) (human)
Test: cross-linking

Substance “MUC2C-N (human MUC2 residues 4256-4803, C4786A; PTS3, VWCN, D4 and VWC1) (domain or fragment)” has a stoichiometry N of 2.
